The target of test [1] is individual catalytic domain of human MT2-MMP (human).
Test [2] has as its target individual catalytic domain of human MT3-MMP (human).
For test [3], the target named is individual catalytic domain of human MT4-MMP (human).
The target in test [4] is individual catalytic domain of human MT5-MMP (human).
Test [5] addresses individual catalytic domain of human MT6-MMP (human).

Sequence of individual catalytic domain of human MT3-MMP (human) (P51512 32-607): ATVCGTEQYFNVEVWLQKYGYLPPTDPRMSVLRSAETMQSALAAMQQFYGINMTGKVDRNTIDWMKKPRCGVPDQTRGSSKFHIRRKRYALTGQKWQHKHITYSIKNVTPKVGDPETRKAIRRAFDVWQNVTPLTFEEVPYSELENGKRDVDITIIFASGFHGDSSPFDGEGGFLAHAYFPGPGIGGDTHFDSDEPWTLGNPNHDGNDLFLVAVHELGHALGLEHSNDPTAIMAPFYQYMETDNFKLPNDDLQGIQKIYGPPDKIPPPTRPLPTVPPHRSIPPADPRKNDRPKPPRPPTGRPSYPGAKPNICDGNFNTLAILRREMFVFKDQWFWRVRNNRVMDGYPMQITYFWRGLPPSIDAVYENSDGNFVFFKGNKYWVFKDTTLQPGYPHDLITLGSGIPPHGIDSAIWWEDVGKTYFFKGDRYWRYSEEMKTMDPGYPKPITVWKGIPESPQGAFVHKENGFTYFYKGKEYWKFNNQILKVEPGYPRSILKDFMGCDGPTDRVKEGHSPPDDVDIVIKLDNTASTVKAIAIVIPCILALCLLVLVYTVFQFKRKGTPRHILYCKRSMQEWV
Sequence of individual catalytic domain of human MT2-MMP (human) (P51511 42-669): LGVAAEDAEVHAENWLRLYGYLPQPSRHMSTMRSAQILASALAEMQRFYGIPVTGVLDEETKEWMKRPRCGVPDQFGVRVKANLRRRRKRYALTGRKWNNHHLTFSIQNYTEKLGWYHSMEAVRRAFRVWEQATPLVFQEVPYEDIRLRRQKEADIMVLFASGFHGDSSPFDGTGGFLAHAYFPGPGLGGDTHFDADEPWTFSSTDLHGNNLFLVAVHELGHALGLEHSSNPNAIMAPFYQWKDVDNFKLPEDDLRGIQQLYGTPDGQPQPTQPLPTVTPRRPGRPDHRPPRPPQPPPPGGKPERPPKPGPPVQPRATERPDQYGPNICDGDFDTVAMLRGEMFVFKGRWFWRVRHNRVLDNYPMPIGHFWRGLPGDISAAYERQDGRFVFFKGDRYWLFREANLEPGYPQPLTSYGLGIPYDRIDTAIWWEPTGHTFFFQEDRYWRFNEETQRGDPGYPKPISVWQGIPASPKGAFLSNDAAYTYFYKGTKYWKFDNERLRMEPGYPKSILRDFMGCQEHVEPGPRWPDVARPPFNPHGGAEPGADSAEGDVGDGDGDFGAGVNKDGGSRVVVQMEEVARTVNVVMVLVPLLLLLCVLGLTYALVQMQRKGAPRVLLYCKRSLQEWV
Sequence of individual catalytic domain of human MT5-MMP (human) (Q9Y5R2 53-645): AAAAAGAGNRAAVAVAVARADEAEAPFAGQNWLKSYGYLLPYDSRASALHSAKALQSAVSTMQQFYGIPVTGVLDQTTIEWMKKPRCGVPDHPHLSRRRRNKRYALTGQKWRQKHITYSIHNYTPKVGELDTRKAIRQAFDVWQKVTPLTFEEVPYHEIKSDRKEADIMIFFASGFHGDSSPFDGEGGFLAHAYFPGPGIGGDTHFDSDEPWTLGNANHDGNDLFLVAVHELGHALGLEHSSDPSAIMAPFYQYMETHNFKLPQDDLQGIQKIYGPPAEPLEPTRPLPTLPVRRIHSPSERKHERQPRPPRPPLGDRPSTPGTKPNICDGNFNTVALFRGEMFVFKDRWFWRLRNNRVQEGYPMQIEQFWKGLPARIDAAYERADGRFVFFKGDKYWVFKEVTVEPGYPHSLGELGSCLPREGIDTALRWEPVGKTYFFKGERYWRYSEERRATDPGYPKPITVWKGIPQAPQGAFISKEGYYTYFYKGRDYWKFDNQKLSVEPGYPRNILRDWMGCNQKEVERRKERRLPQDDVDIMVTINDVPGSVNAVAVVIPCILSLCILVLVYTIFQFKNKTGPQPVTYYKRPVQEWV
Sequence of individual catalytic domain of human MT6-MMP (human) (Q9NPA2 22-562): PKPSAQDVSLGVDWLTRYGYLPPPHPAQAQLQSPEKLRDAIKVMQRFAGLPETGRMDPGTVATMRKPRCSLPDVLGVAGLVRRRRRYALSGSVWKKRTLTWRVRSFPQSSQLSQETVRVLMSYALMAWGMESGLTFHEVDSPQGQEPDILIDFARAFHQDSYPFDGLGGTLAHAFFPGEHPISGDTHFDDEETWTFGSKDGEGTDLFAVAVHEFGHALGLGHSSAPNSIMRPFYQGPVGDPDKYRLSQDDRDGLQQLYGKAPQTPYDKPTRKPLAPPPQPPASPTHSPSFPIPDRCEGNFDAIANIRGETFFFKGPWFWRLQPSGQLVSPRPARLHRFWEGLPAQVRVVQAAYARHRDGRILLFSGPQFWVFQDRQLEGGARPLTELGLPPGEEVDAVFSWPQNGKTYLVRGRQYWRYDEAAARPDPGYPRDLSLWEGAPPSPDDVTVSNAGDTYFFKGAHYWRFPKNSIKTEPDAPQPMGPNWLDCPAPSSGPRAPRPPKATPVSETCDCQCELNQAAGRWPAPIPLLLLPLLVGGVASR
Sequence of individual catalytic domain of human MT4-MMP (human) (Q9ULZ9 36-603): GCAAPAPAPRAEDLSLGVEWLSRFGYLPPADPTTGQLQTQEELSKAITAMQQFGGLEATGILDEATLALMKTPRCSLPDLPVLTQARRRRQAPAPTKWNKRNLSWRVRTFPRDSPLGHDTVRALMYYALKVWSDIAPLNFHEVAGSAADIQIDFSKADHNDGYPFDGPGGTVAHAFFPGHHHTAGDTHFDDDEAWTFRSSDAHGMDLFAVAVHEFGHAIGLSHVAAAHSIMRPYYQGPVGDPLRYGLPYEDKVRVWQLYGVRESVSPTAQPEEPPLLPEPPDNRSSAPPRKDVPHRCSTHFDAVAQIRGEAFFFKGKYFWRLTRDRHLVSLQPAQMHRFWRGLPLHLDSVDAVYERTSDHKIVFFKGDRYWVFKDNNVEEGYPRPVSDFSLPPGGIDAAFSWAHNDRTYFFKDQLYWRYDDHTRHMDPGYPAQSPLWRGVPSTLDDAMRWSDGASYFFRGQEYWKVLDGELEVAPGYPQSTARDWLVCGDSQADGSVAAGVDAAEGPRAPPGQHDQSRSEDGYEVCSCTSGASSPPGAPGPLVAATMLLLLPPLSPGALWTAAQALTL

B1: 3A2 Fab (Fab, V domains shown)
VH: EVQLVESGGGLVQPGGSLRLSCAASGFNLSSSSMHWVRQAPGKGLEWVASIYPSYSYTYYADSVKGRFTISADTSKNTAYLQMNSLRAEDTAVYYCARVKLQKDKSHQWIRNLVATPYGRYVMDYWGQGTLVTVSS
VL: DIQMTQSPSSLSASVGDRVTITCRASQSVSSAVAWYQQKPGKAPKLLIYSASSLYSGVPSRFSGSRSGTDFTLTISSLQPEDFATYYCQQYGYPITFGQGTKVEIK
With B1, in test [1], the IC50 of inhibition of the CAT of MT2-MMP (5 nM), cleavage of Mca-PLGL-Dpa-AR-NH2 (1 uM); 3A2 Fab 0-5,000 nM was 1.8 µM. The IC50 of inhibition of the CAT of MT3-MMP (5 nM), cleavage of Mca-PLGL-Dpa-AR-NH2 (1 uM); 3A2 Fab 0-5,000 nM in test [2] is 0.335 µM. Moreover, the IC50 of inhibition of the CAT of MT4-MMP (5 nM), cleavage of Mca-PLGL-Dpa-AR-NH2 (1 uM); 3A2 Fab 0-5,000 nM in test [3] is > 5 µM. Besides, the IC50 of inhibition of the CAT of MT5-MMP (5 nM), cleavage of Mca-PLGL-Dpa-AR-NH2 (1 uM); 3A2 Fab 0-5,000 nM in test [4] stood at 0.425 µM. Further, in test [5], the IC50 of inhibition of the CAT of MT6-MMP (5 nM), cleavage of Mca-PLGL-Dpa-AR-NH2 (1 uM); 3A2 Fab 0-5,000 nM was > 5 µM.

The values are drawn from publication PMC5356841.
